From the supplement of paper PMC10724198
± gives the standard deviation of the averaged measurements.

Test system: Saccharomyces cerevisiae
Experiment: protein stability index of tFT-peptide fusion (C-terminal peptide) (PSI (0-1 scale)); higher = more stable (slower turnover)
Method: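 MPS profiling in S. cerevisiae of the tFT-X12 degron library: putative degron peptides plus stable controls, 12 aa, fused to the C-terminus of a sfGFP-mCherry timer. Cells are FACS-sorted into 8 mCherry/sfGFP bins and deep-sequenced. PSI runs from 0 (unstable) to 1 (stable). Backgrounds are wild type, das1Δ and doa10Δ at 30 °C, and wild type, das1Δ, cdc34-1 and cdc53-1 at 37 °C; 2-3 technical replicates each.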

[1] = genetic background: cdc34-1, temperature: 37 C
[2] = genetic background: cdc53-1, temperature: 37 C
[3] = genetic background: das1 deletion, temperature: 30 C
[4] = genetic background: das1 deletion, temperature: 37 C
[5] = genetic background: doa10 deletion, temperature: 30 C
[6] = genetic background: wild type, temperature: 30 C
[7] = genetic background: wild type, temperature: 37 C
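Note: PSI is a weighted mean of sequencing reads over stability bins, variants kept only with over 10 reads, mCherry proximal and sfGFP distal, peptide attached via GGGS linker.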

Row | Sequence | protein stability index [1] | protein stability index [2] | protein stability index [3] | protein stability index [4] | protein stability index [5] | protein stability index [6] | protein stability index [7]
1 | FFFWLLCAGWLL | 0.661 ± 0.01 | 0.622 ± 0.012 | 0.544 ± 0.044 | 0.656 ± 0.0071 | 0.551 ± 0.041 | 0.534 ± 0.0081 | 0.649 ± 0.0073
2 | GAQQRVKERYIE | 0.648 ± 0.012 | 0.721 ± 0.027 | 0.636 ± 0.028 | 0.7346 ± 0.0027 | 0.6157 ± 0.0038 | 0.646 ± 0.03 | 0.741 ± 0.00086
3 | GGGGVFGVWVWM | 0.533 ± 0.058 | 0.618 ± 0.018 | 0.511 ± 0.013 | 0.656 ± 0.0086 | 0.23 ± 0.017 | 0.272 ± 0.024 | 0.494 ± 0.014
4 | GRTDFSTLLLIC | 0.491 ± 0.016 | 0.6912 ± 0.0053 | 0.564 ± 0.018 | 0.683 ± 0.019 | 0.106 ± 0.012 | 0.132 ± 0.039 | 0.16 ± 0.056
5 | HSAIFLFFFFFG | 0.283 ± 0.11 | 0.4553 ± 0.0042 | 0.314 ± 0.022 | 0.444 ± 0.03 | 0.331 ± 0.051 | 0.296 ± 0.024 | 0.401 ± 0.034
6 | LLFFGFVGSCVF | 0.6341 ± 0.0023 | 0.6187 ± 0.0052 | 0.468 ± 0.028 | 0.671 ± 0.041 | 0.471 ± 0.047 | 0.485 ± 0.036 | 0.57 ± 0.0036
7 | LPPHSASLSSSF | 0.701 ± 0.054 | 0.7591 ± 0.0059 | 0.635 ± 0.029 | 0.725 ± 0.011 | 0.665 ± 0.015 | 0.675 ± 0.022 | 0.704 ± 0.013
